± gives the half width of the 95% confidence interval.
How the values were obtained:
[1] = folding stability dG unfold from trypsin proteolysis; higher = more stable
In short: (§1)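 Only designs with AlphaFold2 dimer inter-PAE above 15 were retained; each was a mini-protein under 80 residues with no cysteine, in a PA-tagged cDNA display construct. After digestion with trypsin and chymotrypsin and sequencing, K50 was inferred by Bayesian fitting of counts, and unfolding free energy was derived per protease or combined against a sequence-predicted unfolded-state K50 and a shared folded-state K50.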

[2] = folding stability dG unfold from chymotrypsin proteolysis; higher = more stable
In short: as §1

[3] = folding stability dG unfold (combined trypsin and chymotrypsin); higher = more stable
In short: as §1

Sequence | folding stability dG unfold [1] [kcal/mol] | folding stability dG unfold [2] [kcal/mol] | folding stability dG unfold [3] [kcal/mol]
SWLKLPPGQKVITFQFQYPLPPGQSADDLVDNMEKELREFFGPGVKIEVNVQWDPNNGYFRVSVTIVIPKSA [r9_657_TrROS] | 1.86 ± 0.057 | 1.21 ± 0.17 | 1.63 ± 0.2
SWMLRIRNPDDGKTREIKLPNMPPTVQKDGWISITNPQFLNQLLDALPPDYKIDEVEFMPGGMHTMKVKPSA [r9_997_TrROS] | 0.0269 ± 0.17 | -0.067 ± 0.32 | 0.019 ± 0.12
SWVEIPPDKIKDLMNRFQNGDWEEIVDLLKDLGFKNVTIEPQRNNGQRYFTIWVEHPDGPVIIEMPPSDISA [r9_783_TrROS] | 2.39 ± 0.082 | 2.87 ± 0.044 | 2.72 ± 0.097
SWYHIQFWLEGNSIEELMKWAKELAKQGNFEITKISNEHMHITIEIKLKPPPPPPPPPPKEEYDGDGKPKSA [r9_830_TrROS] | 2.53 ± 0.56 | 2.37 ± 0.19 | 2.22 ± 0.46
SYDHMRKWIKQAAQERGLKVTNIDIEPTPKTNTFKMSIEIPNGREINFEFQHDKNGGWQFTIQQIKNALKSA [r9_85_TrROS] | 2.07 ± 0.084 | 2.8 ± 0.039 | 2.69 ± 0.2
SYWIRITINGQTIMFPAEDADKLLGELQSNGWRIKITDIEPDPDDDWIMFKINIRPPKPPPPPPPDPDGKSA [r9_448_TrROS] | 2 ± 0.11 | 3.47 ± 0.041 | 3.17 ± 0.34
WMWVIKVRNPKNGKKRTIMIPDDPERAKNQIKNLKKQDPNMTVEIIGIKEPEVRKAAKEAGLDDIEVEPMPS [r1_114_TrROS] | 0.758 ± 0.091 | 0.666 ± 0.34 | 0.726 ± 0.31
YKAKITSVSFIPGEGYIVFNVEVIGPDGIPATFPIVIKIEIEPEEPDPAPPVIKDPNGKVYNPIIPKWFDAS [r1_270_TrMRF] | 1.5 ± 0.043 | 2.38 ± 0.054 | 2.13 ± 0.09
YMVFIRIEVEDPKNGEEKAEIPIPIPIPPGDLKNMPPEDREKMIEEAKYFAEELAEEKGNVKIKPEIQWFES [r1_115_TrROS] | -0.246 ± 0.19 | -0.226 ± 0.66 | -0.0293 ± 0.23
